Several values for one entry are separate records, joined by “and”; a condition that tells them apart may be missing. Equal entries are not always repeated.
Assays:
PD-L1 on CHO-PD-L1 cells [1] = target: T1, PD-L1 on CHO-PD-L1 cells (UniProt Q9NZQ7 19-290, limits assumed); assay: flow cytometry on CHO-PD-L1 cells, anti-human IgG PE
T1 construct: whole, on cells; also called CHO-PD-L1细胞(南京勇山生物科技有限公司); 稳定转染PD-L1的CHO细胞株(GenScript，Cat.M00613)

人PD-L1重组蛋白(Sino …) = target: T2, 人PD-L1重组蛋白(Sino Biological,Cat.10084-H05H) (human, UniProt Q9NZQ7 19-239); assay: competition ELISA, human PD-L1 coated, blocks PD-1-His
T2 construct: also called 人PD-L1蛋白
T2 sequence (Q9NZQ7 19-239 limits assumed): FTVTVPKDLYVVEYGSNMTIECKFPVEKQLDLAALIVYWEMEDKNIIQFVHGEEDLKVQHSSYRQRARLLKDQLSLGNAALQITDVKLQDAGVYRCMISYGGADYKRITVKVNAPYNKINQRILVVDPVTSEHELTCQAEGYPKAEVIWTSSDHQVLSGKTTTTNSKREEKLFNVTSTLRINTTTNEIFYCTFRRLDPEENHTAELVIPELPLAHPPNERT

[2] = target: T3, 食蟹猴PD-L1蛋白(Cat.#90251-C08H，Sinobiological) (cynomolgus monkey, UniProt G7PSE7 19-239); assay: SPR, Biacore T200, antibody captured on Protein A chip, 25℃, 1:1 model
T3 construct: Bought protein used as analyte in Biacore; also called 食蟹猴PD-L1-His蛋白; 食蟹猴PD-L1重组蛋白; not shown: His tag
T3 sequence (G7PSE7 entry or part of it C08H C08H): as the sequence (Q9NZQ7 19-239 limits assumed) above, with A33T, A34S, S62N, R68Q, Q82R, F173L, T185A, T192I, H215L counted along it

重组人TGF-β1蛋白 = target: T4, 重组人TGF-β1蛋白 (human, UniProt P01137 279-390); assay: bridging ELISA: TGF-β1 coated, test molecule, then PD-L1-His and anti-His-HRP
T4 construct: also called 重组人、食蟹猴TGF-β1(Cat.#10804-HNAC，Sinobiological); 人TGF-β1重组蛋白(Novoprotein,Cat.CA59)
T4 sequence (P01137 279-390 limits assumed): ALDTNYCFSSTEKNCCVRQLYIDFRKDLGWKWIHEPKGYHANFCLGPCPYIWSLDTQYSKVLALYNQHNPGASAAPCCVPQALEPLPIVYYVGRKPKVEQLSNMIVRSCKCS

PD-L1 on CHO-PD-L1 cells [3] = target: T1, PD-L1 on CHO-PD-L1 cells; assay: cell-based or functional assay
[4] = target: T5, PD-L1 on mature human dendritic cells (human, UniProt Q9NZQ7 19-290); assay: flow cytometry on mature human DC, anti-human IgG PE
T5 construct: whole, on cells; also called DC细胞表面PD-L1
T5 sequence (Q9NZQ7 19-290): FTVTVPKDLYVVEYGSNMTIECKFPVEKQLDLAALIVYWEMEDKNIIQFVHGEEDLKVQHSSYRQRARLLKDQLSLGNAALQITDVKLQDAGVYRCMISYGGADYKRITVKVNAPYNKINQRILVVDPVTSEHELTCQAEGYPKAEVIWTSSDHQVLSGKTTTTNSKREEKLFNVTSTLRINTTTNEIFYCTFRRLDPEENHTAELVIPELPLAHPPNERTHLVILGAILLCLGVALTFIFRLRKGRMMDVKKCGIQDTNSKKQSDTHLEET

T1 sequence (Q9NZQ7 19-290 limits assumed): as the sequence (Q9NZQ7 19-290) above

EC50 (PD-L1 on CHO-PD-L1 cells [1]): 0.105 µg/mL
IC50 (人PD-L1重组蛋白(Sino …)): 0.896 nM and 1.49 nM
binding result [2]: binds
binding result (重组人TGF-β1蛋白): no binding (tested: 4nM)
EC50, NFAT luciferase reporter (RLU), Jurkat-PD-1/CHO-PD-L1 (PD-L1 on CHO-PD-L1 cells [3]): 341 ng/ml and 2.15 nM
EC50 [4]: 0.405 nM
B1: 人源化抗PD-L1抗体156-BM12 (antibody, V domains shown)
VH: QVQLVQSGPELKKPGASVKISCKASGYTFTDYYMNWVRQAPGQSLEWIGDINPNNGDTSYNQKFKGRVTLTRDTSTSTVYMELRSLRSEDTAVYYCARSVMDYWGQGTLVTVSS
VL: EIVLTQSPALLSLSPGERVTLSCSASSSVNYVYWYQQKPGQAPRPLIYLTFNLASGIPARFSGSGSGTDFTLTISSLEPEDFAVYYCQQWSSNPLTFGGGTKVEIK
notes: also called PD-L1单抗156-BM12; 人源化PD-L1抗体

— patent CN114773485A (JIANGSU SIMCERE PHARM CO LTD, dated 2022)
